{"source": "patent US7470668B2", "about": "“Method of use of specific natriuretic peptide receptor c ligands, transgenic non-human mammals expressing specific natriuretic peptide receptor c antagonists and cells thereof” (Enobia Pharma Inc., priority 2005, dated 2008)", "key": {"NPR-C": {"target": "T1, NPR-C (Homo sapiens, UniProt P17342)", "T1 construct": "expressed in transfected cells; host or cells: HEK293, transient, pCDNA1.1 (CMV promoter)", "T1 sequence (P17342 27-541)": "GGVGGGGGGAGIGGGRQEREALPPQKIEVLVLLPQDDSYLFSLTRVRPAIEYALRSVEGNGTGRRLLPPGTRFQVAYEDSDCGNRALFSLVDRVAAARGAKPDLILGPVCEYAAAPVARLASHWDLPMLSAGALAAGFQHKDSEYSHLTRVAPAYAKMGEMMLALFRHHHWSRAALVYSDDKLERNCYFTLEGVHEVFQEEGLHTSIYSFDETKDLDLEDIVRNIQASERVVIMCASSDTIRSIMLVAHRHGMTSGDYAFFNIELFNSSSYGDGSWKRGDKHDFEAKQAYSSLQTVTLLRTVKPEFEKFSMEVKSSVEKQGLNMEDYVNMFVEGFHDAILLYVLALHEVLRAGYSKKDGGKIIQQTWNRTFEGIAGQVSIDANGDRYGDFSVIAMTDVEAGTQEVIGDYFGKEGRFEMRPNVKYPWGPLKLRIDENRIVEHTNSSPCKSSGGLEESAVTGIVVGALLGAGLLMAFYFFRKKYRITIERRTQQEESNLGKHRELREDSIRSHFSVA", "test": "ANP-stimulated cGMP in NPR-C overexpressing HEK293 cells", "format": "cell-based", "conditions": "NPR-C-expressing cells, 0.1 nM ANP plus 10 nM peptide", "text": "The expression plasmid for rat GC-A containing the entire coding sequence cloned between the NheI-KpnI sites of CMV-driven pBK plasmid (Stratagene, La Jolla, Calif.) was kindly provided by Dr. A. De Léan (Département de Pharmacologie, Université de Montréal). The human NPR-C and GC-B coding sequences were amplified by RT-PCR from human embryonic kidney polyA RNA (Clontech, Palo Alto, Calif.) with the following primer pairs: NPR-C-5′-[…]-3′(forward) (SEQ ID NO: 74) and 5′-[…]-3′ (SEQ ID NO: 75) (reverse); GC-B-5′-[…]-3′ (SEQ ID NO: 76) (forward) and 5′-[…]-3′ (SEQ ID NO: 77) (reverse). The resulting PCR products were then cloned downstream of the CMV-promoter into the pCDNA1.1 plasmid (Invitrogen, Burlington, ON, Canada). All constructs were validated by DNA sequencing."}, "human GC-B": {"target": "T2, human GC-B (Homo sapiens, UniProt P20594)", "T2 construct": "expressed in transfected cells; host or cells: HEK293, transient, pCDNA1.1 (CMV promoter)", "T2 sequence (P20594 23-1047)": "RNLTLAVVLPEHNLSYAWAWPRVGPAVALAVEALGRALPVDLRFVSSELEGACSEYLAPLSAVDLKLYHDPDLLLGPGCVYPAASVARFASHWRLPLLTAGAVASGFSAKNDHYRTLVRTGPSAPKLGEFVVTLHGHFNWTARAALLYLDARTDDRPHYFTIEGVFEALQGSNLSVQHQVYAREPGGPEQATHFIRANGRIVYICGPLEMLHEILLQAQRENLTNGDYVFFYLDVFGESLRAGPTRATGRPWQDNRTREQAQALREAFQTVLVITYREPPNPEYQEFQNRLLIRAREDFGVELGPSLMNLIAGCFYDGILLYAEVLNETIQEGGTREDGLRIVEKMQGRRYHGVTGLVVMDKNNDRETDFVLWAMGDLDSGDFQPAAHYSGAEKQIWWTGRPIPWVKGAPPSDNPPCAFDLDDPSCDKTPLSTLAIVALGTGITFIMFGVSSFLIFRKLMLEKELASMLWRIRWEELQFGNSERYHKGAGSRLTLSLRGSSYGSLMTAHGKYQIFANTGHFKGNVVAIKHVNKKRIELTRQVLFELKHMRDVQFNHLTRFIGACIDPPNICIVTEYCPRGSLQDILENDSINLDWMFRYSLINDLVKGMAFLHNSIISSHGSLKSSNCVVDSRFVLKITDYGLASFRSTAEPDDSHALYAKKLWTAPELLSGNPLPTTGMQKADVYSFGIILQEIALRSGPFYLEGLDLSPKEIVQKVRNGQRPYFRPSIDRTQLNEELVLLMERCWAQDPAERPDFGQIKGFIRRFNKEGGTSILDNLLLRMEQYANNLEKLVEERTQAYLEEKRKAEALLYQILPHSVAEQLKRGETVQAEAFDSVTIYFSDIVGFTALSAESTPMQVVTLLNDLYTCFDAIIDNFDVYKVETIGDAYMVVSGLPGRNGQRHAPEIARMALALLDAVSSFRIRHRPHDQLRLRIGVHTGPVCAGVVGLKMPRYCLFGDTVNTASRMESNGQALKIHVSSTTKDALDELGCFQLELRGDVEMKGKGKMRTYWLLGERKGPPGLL", "test": "Intracellular cGMP in GC-B transfected HEK293 cells", "format": "cell-based", "conditions": "10 nM peptide, 15 min"}}, "data": [{"molecule": "rhOstn[27-133]: N-terminal 6 histidine-tagged recombinant human Ostn amino acids 27-133 produced in E.coli, SEQ ID NO: 57 (protein, N-terminal His6 tag; recombinant mature osteocrin) SVDVTTTEAFDSGVIDVQSTPTVREEKSATDLTAKLLLLDELVSLENDVIETKKKRSFSGFGSPLDRLSAGSVDHKGKQRKVVDHPKRRFGIPMDRIGRNRLSNSRG", "values": [{"measurement": "increase in cGMP levels (restored ANP signalling)", "setting": "NPR-C", "result": 8, "unit": "fold"}, {"measurement": "intracellular cGMP response via GC-B", "setting": "human GC-B", "result": "failed to activate"}]}]}
